This passage reports Kd results from patent WO2024019110A1 (dated 2024).

Broadly, the Kd is the equilibrium constant for the complex coming apart.

For this test, the target named is Wuhan strain RBD (Ancestral), biotinylated (SARS-CoV-2 (Wuhan strain), UniProt P0DTC2 331-529). Put plainly: BLI (Octet), biotinylated RBD on streptavidin biosensor, Fab in solution. A general note: BLI is a label-free optical method that tracks binding on a fibre tip over time.

B1: recombinant Fab protein of antibody No. 6 (Fab, V domains shown)
VH: QVQLVQSGPEVKKPGTSVKVSCKASGFTFYYSAVQWVRQARGQRLEWLGWMAVGSGKANYAQKFQERLTLTRDMSTSTAYMELSSLRSEDTAVYYCAAPNCTGGSCYDGFNLWGQGTVVTVSS
VL: EIVLTQSPGTLSLSPGDRAILSCRASQTVNSNYLAWYQQKPGQAPRLLIYGTSSRATGIPDRFSGSGSGTDFTLTISRLEPEDFAVYYCQQYGSSPWLFGQGTKVEIK
B1: the Kd was ≤ 100 nM.

B2: recombinant Fab protein of antibody No. 5 (Fab, V domains shown)
VH: EVQLVESGGGLVQPGGSLRLSCAASGFTFYSYWMTWVRQAPGKGLEWVANIKHDESESHYVDSVRGRFTISRDNAKNSVYLQMKGLRAEDTAVYYCARDGGYNILTAYYHAPSYWGQGTLVTVSS
VL: QSALTQPASVSGSPGQSITISCTGTSSDVGGYNFVSWYRQYPGKAPQLMIYDVSRRPSGDSDRFSGSKSGNTASLTISGLQAEDEAEYHCSSYTGRSPYVVFGGGTKVTVL
Consider B2, for which the Kd is ≤ 100 nM.

B3: recombinant Fab protein of antibody No. 2 (Fab, V domains shown)
VH: EVQLVESGGGVVQPGRSLRLSCAASGFKFSKFAMHWVRQAPGKGPEWVAVISYDGNQYHSADSVKGRFTISRDNSFNTLYLQMNSLGPEDTAVYYCARDGPDTSGYYANIYFDFWGQGTLVTVSS
VL: QSVLTQPPSVSGAPGQRVTISCTGSSSNIGAGYDVHWYQQLPGRAPKLLIFDNNNRPSGVPDRFSGSKSGTSASLAITGLQTEDEAYYYCQSYDNSLILAVFGGGTKVTVL
In the case of B3, the Kd was ≤ 100 nM.

B4: recombinant Fab protein of antibody No. 7 (Fab, V domains shown)
VH: EVQLLESGGGLVQPGGSLRLSCAASGFTFSRYALSWVRQAPGKGLEWVSAISGAAITTYYADSVKGRFTISRDDSRNTLFMQMDSLRAEDTAVYYCAKGDYYDSSGYLAEYFPHWGQGTLVTVSS
VL: SYELTQPPSVSVSPGQTARITCFADALPKQHAYWYQQKAGQAPVLVIFKDTERPSGIPKRFSGSRSGATVTLTISGVQAEDEADYYCQSTDISGVLFGGGTKLTVL
Consider B4, for which the Kd is ≤ 100 nM.
